Results from patent US20210380703A1 (RIGEL PHARMACEUTICALS, published 2021).

Legend:
mouse ACVR2A = target: T1, mouse ACVR2A (mouse, UniProt P27038 20-135, limits assumed); test: ELISA
T1 construct: coated antigen of the initial ELISA
Method in brief: (§1)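 Monoclonal antibodies were first applied to human or mouse ACVR2A, alongside biotinylated goat anti-human kappa light chain (positive control) and human Fc (negative control); binding was then determined by ELISA.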

human ACVR2A = target: T2, human ACVR2A (human, UniProt P27037 20-135, limits assumed); test: ELISA
T2 construct: coated antigen of the initial ELISA; also called activin receptor, type II A
Method in brief: as §1

[1] = target: T3, biotinylated goat anti-human kappa light chain; test: ELISA, positive control
T3 construct: positive control of the ELISA
Method in brief: as §1
Further: test concentration or dose not given here.

T1 sequence (P27038 20-135 limits assumed): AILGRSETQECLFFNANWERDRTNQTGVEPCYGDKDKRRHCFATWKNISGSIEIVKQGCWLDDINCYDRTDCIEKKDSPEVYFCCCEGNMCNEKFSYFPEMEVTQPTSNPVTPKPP
T2 sequence (P27037 20-135 limits assumed): as the sequence (P27038 20-135 limits assumed) above, with R20K, I73V counted along it

Binder | optical density (mouse ACVR2A) [OD] | optical density (human ACVR2A) [OD] | optical density [1] [OD]
369_C05 (antibody, V domains shown, Group III) VH: EVQLLESGGGLVQPGGSLRLSCAASGFTFDSYSMNWVRQAPGKGLEWVAGINYNGGYTSYADSVKGRFTISRDNSKNTLYLQMNSLRAEDTAVYYCARGANWHDTALDYWGQGTLVTVSS VL: DIQMTQSPSSLSASVGDRVTITCRASQSISSYVNWYQQKPGKAPKLVIYATTSRHSGVPSRFSGSGSGTDFTLTISSLQPEDFATYYCQQSYNSPLTFGGGTKVEIK | 2.72 | 2.54 | 3.02
369_G08 (antibody, V domains shown, Group III) VH: EVQLLESGGGLVQPGGSLRLSCAASGFTFDSYSMNWVRQAPGKGLEWVSSINYNGGYKGYADSVKGRFTISRDNSKNTLYLQMNSLRAEDTAVYYCARGANWHDTHLDYWGQGTLVTVSS VL: not shown | 3.49 | 3.3 | 3.58
370_B03 (antibody, V domains shown, Group III) VH: EVQLLESGGGLVQPGGSLRLSCAASGFTFSSYSMNWVRQAPGKGLEWVANINYNGGYTGYADSVKGRFTISRDNSKNTLYLQMNSLRAEDTAVYYCARGANWHDTALDYWGQGTLVTVSS VL: DIQMTQSPSSLSASVGDRVTITCRASQSILSYLNWYQQKPGKAPKLVIYAATSRASGVPSRFSGSGSGTDFTLTISSLQPEDFATYYCQQSYNNPLTFGGGTKVEIK | 3.57 | 3.71 | 3.61
369_E06 (antibody, V domains shown, Group III) VH: EVQLLESGGGLVQPGGSLRLSCAASGFTFSSYGMNWVRQAPGKGLEWVSGINYNGGYTSYADSVKGRFTISRDNSKNTLYLQMNSLRAEDTAVYYCARGANWHDTALDYWGQGTLVTVSS VL: DIQMTQSPSSLSASVGDRVTITCRASQSIISYLNWYQQKPGKAPKLVIYAATSRHSGVPSRFSGSGSGTDFTLTISSLQPEDFATYYCQQSYDSPLTFGGGTKVEIK | 3.11 | 3.13 | 3.52
369_D09 (antibody, V domains shown, Group III) VH: EVQLLESGGGLVQPGGSLRLSCAASGFTFSDYGMNWVRQAPGKGLEWVSNINYNGGYTSYADSVKGRFTISRDNSKNTLYLQMNSLRAEDTAVYYCARGANWHDTALDYWGQGTLVTVSS VL: DIQMTQSPSSLSASVGDRVTITCRASQSILTYLNWYQQKPGKAPKLLIYAATSRASGVPSRFSGSGSGTDFTLTISSLQPEDFATYYCQQSYDSPLTFGGGTKVEIK | 3.05 | 3.3 | 3.45

The next lines start with the values.

optical density (mouse ACVR2A) [OD] | optical density (human ACVR2A) [OD] | optical density [1] [OD] | Binder
3.55 | 3.28 | 3.61 | 369_D03 (antibody, V domains shown, Group III) VH: EVQLLESGGGLVQPGGSLRLSCAASGFTFSSYSMNWVRQAPGKGLEWVSGINYNGGYTSYADSVKGRFTISRDNSKNTLYLQMNSLRAEDTAVYYCARGANWHDTHLDYWGQGTLVTVSS VL: DIQMTQSPSSLSASVGDRVTITCRASQSILTYLNWYQQKPGKAPKLVIYAATSRASGVPSRFSGSGSGTDFTLTISSLQPEDFATYYCQQSYENPLTFGGGTKVEIK
2.91 | 3.07 | 3.26 | 369_D07 (antibody, V domains shown, Group III) VH: EVQLLESGGGLVQPGGSLRLSCAASGFTFSSYGMNWVRQAPGKGLEWVSGINYNGGYKSYADSVKGRFTISRDNSKNTLYLQMNSLRAEDTAVYYCARGANWHDTHLDYWGQGTLVTVSS VL: DIQMTQSPSSLSASVGDRVTITCRASQSIVSYLNWYQQKPGKAPKLVIYAATSRASGVPSRFSGSGSGTDFTLTISSLQPEDFATYYCQQSYDLPLTFGGGTKVEIK
2.91 | 2.9 | 3.62 | 370_A02 (antibody, V domains shown, Group III) VH: EVQLLESGGGLVQPGGSLRLSCAASGFTFDSYGMNWVRQAPGKGLEWVAGINYNGGYTGYADSVKGRFTISRDNSKNTLYLQMNSLRAEDTAVYYCARGANWHDTALDYWGQGTLVTVSS VL: DIQMTQSPSSLSASVGDRVTITCRASQSIVTYLNWYQQKPGKAPKLVIYAATSRASGVPSRFSGSGSGTDFTLTISSLQPEDFATYYCQQSYDSPLTFGGGTKVEIK
